Values quoted from earlier work in patent US8349318B2, “Use of specifically engineered enzymes to enhance the efficacy of prodrugs” (The Board of Trustees of the University of Illinois, priority 2008, dated 2013).

B1: dNK: Drosophila melanogaster nucleoside kinase, SEQ ID NO:3 (protein)
chain: MAEAASCARKGTKYAEGTQPFTVLIEGNIGSGKTTYLNHFEKYKNDICLLTEPVEKWRNVNGVNLLELMYKDPKKWAMPFQSYVTLTMLQSHTAPTNKKLKIMERSIFSARYCFVENMRRNGSLEQGMYNTLEEWYKFIEESIHVQADLIIYLRTSPEVAYERIRQRARSEESCVPLKYLQELHELHEDWLIHQRRPQSCKVLVLDADLNLENIGTEYQRSESSIFDAISSNQQPSPVLVSPSKRQRVAR
modifications: Drosophila melanogaster
kcat for dC phosphorylation (Knecht et al., 2002): 16.5 s⁻¹ | efficiency for dC phosphorylation, higher than dCK (compared with dCK): 2,500 fold
